What was measured:
[1] = biological target: AGPCHV3 (UniProt P02763)
[2] = tested on: C-terminally His-tagged hirudin variant 3 (HV3)
[3] = tested on: HSACHV3
[4] = tested on: HSAHV3
[5] = biological target: AGPCHV3, P02763
[6] = biological target: T1, GSTcle3HV3
T1 chain: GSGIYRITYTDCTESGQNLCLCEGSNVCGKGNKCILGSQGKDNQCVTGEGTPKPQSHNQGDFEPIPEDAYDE

[7] = biological target: HSACHV3; remark: listed apart in the source

Chain of AGPCHV3, P02763 (P02763 whole entry, looked up): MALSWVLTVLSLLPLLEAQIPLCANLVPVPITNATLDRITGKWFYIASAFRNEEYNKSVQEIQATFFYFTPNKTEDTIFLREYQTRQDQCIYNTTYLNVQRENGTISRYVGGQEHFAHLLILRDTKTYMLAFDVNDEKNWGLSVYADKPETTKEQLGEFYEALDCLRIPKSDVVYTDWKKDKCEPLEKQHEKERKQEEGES
Chain of C-terminally His-tagged hirudin variant 3 (HV3) (chain, as listed by the source mutant): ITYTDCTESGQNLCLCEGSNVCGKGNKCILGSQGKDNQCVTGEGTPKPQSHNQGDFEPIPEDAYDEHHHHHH

human α-thrombin
rate of thrombin cleavage of a chromogenic substrate, fusion protein 376 nM without plasmin [1]: In the absence of plasmin, neither fusion protein had substantial effects upon the thrombin activity
rate of thrombin-mediated chromogenic substrate cleavage, end value after 1500 nM HSACHV3 was combined with 600 nM plasmin (HV3 released) [2]: The former reduced the rate of thrombin-mediated chromogenic substrate cleavage from 89.9% to 5.5%
rate of thrombin cleavage of a chromogenic substrate, fusion protein 376 nM without plasmin [3]: In the absence of plasmin, neither fusion protein had substantial effects upon the thrombin activity
rate of thrombin-mediated chromogenic substrate cleavage, starting value for 1500 nM HSACHV3 [3]: The former reduced the rate of thrombin-mediated chromogenic substrate cleavage from 89.9% to 5.5%
% thrombin activity (chromogenic substrate) after reaction of HSAHV3 with plasmin [4]: thrombin inhibition was unaffected by the presence of HSAHV3 following reaction with plasmin

B1: plasmin (protein)
chain: KVYLSECKTGNGKNYRGTMSKTKNGITCQKWSSTSPHRPRFSPATHPSEGLEENYCRNPDNDPQGPWCYTTDPEKRYDYCDILECEEECMHCSGENYDGKISKTMSGLECQAWDSQSPHAHGYIPSKFPNKNLKKNYCRNPDRELRPWCFTTDPNKRWELCDIPRCTTPPPSSGPTYQCLKGTGENYRGNVAVTVSGHTCQHWSAQTPHTHNRTPENFPCKNLDENYCRNPDGKRAPWCHTTNSQVRWEYCKIPSCDSSPVSTEQLAPTAPPELTPVVQDCYHGDGQSYRGTSSTTTTGKKCQSWSSMTPHRHQKTPENYPNAGLTMNYCRNPDADKGPWCFTTDPSVRWEYCNLKKCSGTEASVVAPPPVVLLPDVETPSEEDCMFGNGKGYRGKRATTVTGTPCQDWAAQEPHRHSIFTPETNPRAGLEKNYCRNPDGDVGGPWCYTTNPRKLYDYCDVPQCAAPSFDCGKPQVEPKKCPGRVVGGCVAHPHSWPWQVSLRTRFGMHFCGGTLISPEWVLTAAHCLEKSPRPSSYKVILGAHQEVNLEPHVQEIEVSRLFLEPTRKDIALLKLSSPAVITDKVIPACLPSPNYVVADRTECFITGWGETQGTFGAGLLKEAQLPVIENKVCNRYEFLNGRVQSTELCAGHLAGGTDSCQGDSGGPLVCFEKDKYILQGVTSWGLGCARPNKPGVYVRVSRFVTWIEGVMRNN
time- and plasmin-dependent cleavage, Coomassie-stained SDS gel (4000 nM AGPCHV3, 600 nM plasmin) [5]: A time- and plasmin-dependent cleavage pattern of both proteins is shown, yielding a single product for HSACHV3 and two products for AGPCHV3
cleavage pattern by SDS-PAGE after plasmin digestion [6]: plasmin-dependent polypeptide species were detected, one of which co-migrated with unfused GST, and the other, which migrated slightly more rapidly than Pichia pastoris-derived recombinant hexahisitidinylated HV3
cleavage by plasmin, SDS-PAGE and autoradiography [7]: HSACHV3 was cleaved by plasmin over time, reaching near complete conversion
time- and plasmin-dependent cleavage, Coomassie-stained SDS gel (1500 nM HSACHV3, 600 nM plasmin) [7]: A time- and plasmin-dependent cleavage pattern of both proteins is shown, yielding a single product for HSACHV3 and two products for AGPCHV3
